Experimental data: patent US20240336661A1, “PEPTIDES DERIVED FROM RUMINOCOCCUS TORQUES” (University of Copenhagen, priority 2021, published 2024)

Experiments:
HepG2 cell line = test: Gluconeogenesis gene expression in HepG2 cells; assay type: cell-based; conditions: HepG2, q-PCR
Protocol: (§1) FIG. 13. […] The cells were treated with various doses of RUCILP2, and cells were collected for q-PCR quantification on indicated genes. For integrin inhibitor treatment, cells were treated with 10 uM of cRGDyK (Selleckchem, #S7844) for 10 minutes and washed with PBS before treated with RUCILP2. Data are presented as mean+/−SEM of one representative experiment done in technical triplicate. Statistical significance was determined by unpaired two-tailed Student's t-test. *, p<0.05 vs 0 nM RUCILP2.
HepG2 cells were seeded on 12-well plates under DMEM/F-12 medium (Dulbecco's Modified Eagle Medium/Nutrient Mixture F-12, Fisher Scientific, #11524436), supplemented with 10% FBS (Fetal Bovine Serum, Fisher Scientific, #11550356) and 1% Penicillin-Streptomycin (Fisher Scientific, #11548876). Cell cultures were maintained in a humidified chamber with 5% C02 at 37° C., and culture media were changed every 2-3 days.
At 70% confluence, to induce insulin resistance, HepG2 cells were incubated with 18 mM glucosamine (GlcN) for 18 h in serum-free medium, followed by treatment with recombinant RUCILP2 or commercial recombinant irisin (Sigma, #SRP8039-10UG and Phoenix pharmaceuticals, #067-29A), or saline for 24 h. […]

Caco-2 cell line = test: Intestinal barrier gene expression in Caco-2 cells (hypoxia/reoxygenation); assay type: cell-based, human; conditions: Caco-2, q-PCR
Protocol: as §1
Commercially available Caco-2 cells (ATCC, #HTB-37) were seeded on 12-well plates under EMEM medium (Eagle's Minimum Essential Medium, ATCC, #30-2003), supplemented with 20% FBS (Fetal Bovine Serum, Fisher Scientific, #11550356) and 1% Penicillin-Streptomycin (Fisher Scientific, #11548876). Cell cultures were maintained in a humidified chamber with 5% CO2 at 37° C., and culture media were changed every 2-3 days.
At 70% confluence, to induce the hypoxia/reoxygenation (H/R) cell culture model, Caco-2 cells were cultured in EMEM medium (glucose and FBS free) and exposed to hypoxia conditions (94% N2, 5% C02 and 1% O2) at 37° C. for 120 minutes. Next, cells were treated for 24 hours with indicated concentrations of recombinant RUCILP2 or commercial recombinant irisin (Sigma, #SRP8039-10UG and Phoenix pharmaceuticals, #067-29A) or PBS immediately at the beginning of reoxygenation. […]

[1] = Targeted proteomics (PRM) assay for RUCILP2 in human plasma; conditions: measured from 6 individuals
Text: FIG. 25. Representative chromatogram showing the presence of RUCILP2 in fasting human plasma. Parallel reaction monitoring (PRM) elution profile for y-ions for the unique tryptic RUCILP2 peptide (EAAGYNVYVDGVK) found in human plasma samples. Top panel is PRM trace for the fragmental ions (box a) of light peptide found in human plasma sample, bottom panel is PRM trace for the fragmental ions (box b) of 10.0 femtomole of heavy isotope labelled (Lys ^13C6, […]) synthetic peptide (internal standard, IS) spiked into fractionated human plasma samples. Retention times for each peptide are labeled on the x axis, and y axis represents the relative intensity for each fragmental ion peak. One milliliter of human plasma sample was depleted of albumin and immunoglobulin G following deglycosylation. Deglycosylated plasma was resolved by SDS-PAGE and molecular mass regions corresponding to completely deglycosylated RUCILP2 (10-15 kDa) was excised and subsequently digested in-gel overnight before LC-MS/MS detection. Based on comparative analysis on relative intensities of fragmental ions found in processed human plasma and fragmental ions found in plasma spiked with heavy isotope labelled internal standards, we estimate the inter-individual concentrations of RUCILP2 in human plasma vary between 10 and 100 pg/ml. […]

fat cells = test: Cellular experiments with recombinant RUCILP2 summarised in Example 6 (fat and liver cells); assay type: cell-based

B1: RUCILP2: 87 amino acid irisin-like polypeptide cleaved from the Ruminococcus torques FNDC5-like protein RUMTOR_00181; recombinant, 6-His-tagged from E. coli (protein)
chain: APVDVKVSEITETSAKASWKNAADGKEAAGYNVYVDGVKLNKELLTEASCGLTNLKAETTYFVEVTAVDAAGNESVKSEKVTFKTLK
modifications: 6-His tag; Ruminococcus torques
notes: 87 amino acid irisin-like polypeptide cleaved from the Ruminococcus torques FNDC5-like protein RUMTOR_00181; recombinant, 6-His-tagged from E. coli
expression of genes involved in gluconeogenesis (HepG2 cell line): reduces expression
expression of genes involved in intestinal integration (Caco-2 cell line): increases expression
inter-individual concentration interval of RUCILP2 in human plasma [1]: 10 to 100 µg/mL
leptin expression in fat cells (fat cells): enhances
expression of genes regulating lipogenesis (fat cells; adipocytes and liver cells): inhibits expression
